These results are taken from US20200283523A1.

The target of the experiment is C1Q (UniProt P02745). The experiment in a line: ELISA, antibody coated on the plate, C1q titrated (axis [C1q] nM), anti-human C1q-HRP detection. (An ELISA detects its analyte on a solid surface through an enzyme-linked reagent.)
Sequence of C1Q (P02745 23-245 limits assumed, chain 1 of 3): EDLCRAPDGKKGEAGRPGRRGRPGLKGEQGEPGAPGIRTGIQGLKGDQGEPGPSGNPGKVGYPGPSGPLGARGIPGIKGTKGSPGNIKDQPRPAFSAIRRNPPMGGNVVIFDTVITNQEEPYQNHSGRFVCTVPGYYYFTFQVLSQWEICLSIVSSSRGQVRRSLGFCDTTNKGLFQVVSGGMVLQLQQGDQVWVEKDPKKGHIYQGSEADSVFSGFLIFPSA
Sequence of C1Q (P02746 28-253 limits assumed, chain 2 of 3, further chain): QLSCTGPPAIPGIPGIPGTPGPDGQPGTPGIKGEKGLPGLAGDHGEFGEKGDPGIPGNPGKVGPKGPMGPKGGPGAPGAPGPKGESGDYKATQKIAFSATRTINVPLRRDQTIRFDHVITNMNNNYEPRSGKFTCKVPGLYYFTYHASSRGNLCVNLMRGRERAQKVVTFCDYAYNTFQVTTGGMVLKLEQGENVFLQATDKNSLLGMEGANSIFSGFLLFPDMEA
Sequence of C1Q (P02747 29-245 limits assumed, chain 3 of 3, further chain): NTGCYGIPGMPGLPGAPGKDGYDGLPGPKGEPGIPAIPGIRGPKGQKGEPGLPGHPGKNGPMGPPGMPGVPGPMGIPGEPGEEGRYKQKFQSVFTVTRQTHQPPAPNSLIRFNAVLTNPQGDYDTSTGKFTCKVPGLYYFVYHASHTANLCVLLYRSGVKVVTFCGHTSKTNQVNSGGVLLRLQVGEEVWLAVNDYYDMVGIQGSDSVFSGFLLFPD

A word on the EC50 (read off the curve): it is the concentration at which the effect is half-maximal. Read a low EC50 (read off the curve) as higher potency in that assay. Substance control human IgG1 antibody yielded an EC50 (read off the curve) of 0.03 µM.
